Results: publication PMC2705653 (Molecular cell, 2009)
Residue numbers refer to the chain shown, from its start.

B1: Chp1 chromodomain, wild type (for binding studies) (domain or fragment, S. pombe, UniProt Q10103 9-76, looked up)
chain: DIDSNEGETDADVYEVEDILADRVNKNGINEYYIKWAGYDWYDNTWEPEQNLFGAEKVLKKWKKRKKL

Legend:
Swi6 V82E = biological target: T1, Swi6 V82E (S. pombe, UniProt P40381 1-328, V82E); assay: fluorescence polarisation
T1 sequence (looked up): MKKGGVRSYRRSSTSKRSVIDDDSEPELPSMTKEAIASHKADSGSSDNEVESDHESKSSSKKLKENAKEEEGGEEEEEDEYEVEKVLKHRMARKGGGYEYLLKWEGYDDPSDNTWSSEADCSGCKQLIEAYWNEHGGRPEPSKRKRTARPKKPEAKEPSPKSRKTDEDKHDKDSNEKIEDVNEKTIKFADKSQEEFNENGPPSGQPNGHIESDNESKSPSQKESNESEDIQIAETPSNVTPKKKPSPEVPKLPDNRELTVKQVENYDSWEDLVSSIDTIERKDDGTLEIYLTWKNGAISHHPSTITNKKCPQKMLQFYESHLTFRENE

Swi6 E80V V82E = biological target: T2, Swi6 E80V V82E (S. pombe, UniProt P40381 1-328, E80V | V82E); assay: fluorescence polarisation
T2 sequence (looked up): T1 sequence (looked up) with E80V

[1] = biological target: T3, Swi6, full length, wild type (S. pombe, UniProt P40381 1-328); assay: fluorescence polarisation
T3 sequence (looked up): T1 sequence (looked up) with E82V

[2] = biological target: Clr4 chromodomain (residues 1-70) (S. pombe, UniProt O60016 1-70); assay: fluorescence polarisation
[3] = biological target: T4, Chp1 chromodomain (residues 15-75) for crystallization (S. pombe, UniProt Q10103 15-75); assay: crystal structure
T4 sequence (looked up): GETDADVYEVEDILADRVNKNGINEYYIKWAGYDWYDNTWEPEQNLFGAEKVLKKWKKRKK

[4] = biological target: T5, Chp1 chromodomain E23V,V24M (S. pombe, UniProt Q10103 9-76, E23V | V24M); assay: fluorescence polarisation
T5 sequence (looked up): B1 chain with E15V, V16M

[5] = biological target: T6, H3K9me3 peptide (isothermal titration calorimetry) (trimethyl-lysine at 9); assay: ITC
T6 chain: ARTKQTARKSTGGKAY

Chain of Clr4 chromodomain (residues 1-70) (O60016 1-70): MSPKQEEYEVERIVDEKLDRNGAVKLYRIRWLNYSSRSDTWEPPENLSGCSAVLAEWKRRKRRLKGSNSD

| Binder | Kd (Swi6 V82E) | Kd (Swi6 E80V V82E) | Kd [1] | Kd [2] | binding result [3] | Kd [4] | fold higher affinity than Swi6 [5] |
| --- | --- | --- | --- | --- | --- | --- | --- |
| ARTKQTARKSTGGKAY (dimethyl-lysine at 9; fluorescein (position not given)) [fluorescein labeled H3K9me2 peptide] | 2190 ± 130 nM | 1070 ± 30 nM | 10300 ± 1690 nM | 2860 ± 270 nM |  |  |  |
| ARTKQTARKSTGGKAY (trimethyl-lysine at 9) [H3K9me3 peptide (crystallization)] |  |  |  |  | binds |  |  |
| ARTKQTARKSTGGKAY (trimethyl-lysine at 9) [H3K9me3 peptide (fluorescence polarization)] | 1040 ± 100 nM | 610 ± 120 nM | 3340 ± 550 nM | 600 ± 80 nM |  | 14700 nM |  |
| B1 |  |  |  |  |  |  | ≥ 5 fold |
